Data as given in the supplement of paper PMC9112550, “Optimization of the antimicrobial peptide Bac7 by deep mutational scanning” (BMC Biology, 2022).

Test system: Escherichia coli TOP10
Assay: shrunken log2 fold change of peptide-encoding DNA abundance (4.5 h post-induction vs induction); higher = less antimicrobial activity (less host growth inhibition)
Settings: time post-induction: 4.5 h; library: site-saturation at positions 5, 18, 19, 20
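Further: peptides expressed intracellularly from a pBAD plasmid library in pooled LB shake-flask culture, induced with 0.3% L-arabinose, DNA abundance read by NGS, three biological replicates, DESeq2 with apeglm shrinkage.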

Sequence: RRIRYRPPRLPRPRPRPAWNPRP
- shrunken log2 fold change: -0.374

Sequence: RRIRIRPPRLPRPRPRPNVGPRP
- shrunken log2 fold change: 0.011

Sequence: RRIRFRPPRLPRPRPRPMDSPRP
- shrunken log2 fold change: -0.398

Sequence: RRIRSRPPRLPRPRPRPMSSPRP
- shrunken log2 fold change: -0.313

Sequence: RRIRQRPPRLPRPRPRPKEHPRP
- shrunken log2 fold change: -0.117

Sequence: RRIRCRPPRLPRPRPRPMWHPRP
- shrunken log2 fold change: -0.147

Sequence: RRIRIRPPRLPRPRPRPKTTPRP
- shrunken log2 fold change: -0.301

Sequence: RRIRVRPPRLPRPRPRPAFRPRP
- shrunken log2 fold change: 0.186

Sequence: RRIRFRPPRLPRPRPRPSIYPRP
- shrunken log2 fold change: -0.615

Sequence: RRIRTRPPRLPRPRPRPYSSPRP
- shrunken log2 fold change: 0.00157

Sequence: RRIRRRPPRLPRPRPRPQYGPRP
- shrunken log2 fold change: -0.409

Sequence: RRIRFRPPRLPRPRPRPWDIPRP
- shrunken log2 fold change: -0.0124

Sequence: RRIRKRPPRLPRPRPRPRDGPRP
- shrunken log2 fold change: 0.822

Sequence: RRIRKRPPRLPRPRPRPKPIPRP
- shrunken log2 fold change: 0.742

Sequence: RRIRDRPPRLPRPRPRPKCFPRP
- shrunken log2 fold change: 0.0766

Sequence: RRIRCRPPRLPRPRPRPARGPRP
- shrunken log2 fold change: 0.297

Sequence: RRIRMRPPRLPRPRPRPYLAPRP
- shrunken log2 fold change: -0.0134

Sequence: RRIRTRPPRLPRPRPRPPIEPRP
- shrunken log2 fold change: -0.0275

Sequence: RRIRCRPPRLPRPRPRPLPNPRP
- shrunken log2 fold change: -0.0586

Sequence: RRIRMRPPRLPRPRPRPDFAPRP
- shrunken log2 fold change: 0.0706

Sequence: RRIRHRPPRLPRPRPRPRYPPRP
- shrunken log2 fold change: 0.0331

Sequence: RRIRERPPRLPRPRPRPSWPPRP
- shrunken log2 fold change: -0.079

Sequence: RRIRGRPPRLPRPRPRPWNVPRP
- shrunken log2 fold change: -0.0303

Sequence: RRIRMRPPRLPRPRPRPPCSPRP
- shrunken log2 fold change: 0.489

Sequence: RRIRCRPPRLPRPRPRPYAQPRP
- shrunken log2 fold change: -0.227

Sequence: RRIRGRPPRLPRPRPRPGTRPRP
- shrunken log2 fold change: 0.703

Sequence: RRIRVRPPRLPRPRPRPQMIPRP
- shrunken log2 fold change: -0.425

Sequence: RRIRNRPPRLPRPRPRPSMAPRP
- shrunken log2 fold change: -0.139

Sequence: RRIRGRPPRLPRPRPRPNWVPRP
- shrunken log2 fold change: 0.325

Sequence: RRIRNRPPRLPRPRPRPVAMPRP
- shrunken log2 fold change: -0.198

Sequence: RRIRERPPRLPRPRPRPNQLPRP
- shrunken log2 fold change: -0.0673

Sequence: RRIRCRPPRLPRPRPRPEYYPRP
- shrunken log2 fold change: -0.159

Sequence: RRIRMRPPRLPRPRPRPCMRPRP
- shrunken log2 fold change: 0.889

Sequence: RRIRGRPPRLPRPRPRPMSPPRP
- shrunken log2 fold change: 0.00263

Sequence: RRIRPRPPRLPRPRPRPDHWPRP
- shrunken log2 fold change: 0.0752

Sequence: RRIRCRPPRLPRPRPRPKNLPRP
- shrunken log2 fold change: -0.292

Sequence: RRIRSRPPRLPRPRPRPHSFPRP
- shrunken log2 fold change: 0.176

Sequence: RRIRIRPPRLPRPRPRPKSYPRP
- shrunken log2 fold change: -0.605

Sequence: RRIRPRPPRLPRPRPRPIFKPRP
- shrunken log2 fold change: -0.0374

Sequence: RRIRLRPPRLPRPRPRPPLSPRP
- shrunken log2 fold change: -0.00759

Sequence: RRIRLRPPRLPRPRPRPAHRPRP
- shrunken log2 fold change: 0.278

Sequence: RRIRDRPPRLPRPRPRPQTWPRP
- shrunken log2 fold change: -0.109

Sequence: RRIRFRPPRLPRPRPRPVIKPRP
- shrunken log2 fold change: -0.339

Sequence: RRIRNRPPRLPRPRPRPSINPRP
- shrunken log2 fold change: -0.537

Sequence: RRIRGRPPRLPRPRPRPMWNPRP
- shrunken log2 fold change: 0.557

Sequence: RRIRYRPPRLPRPRPRPDQYPRP
- shrunken log2 fold change: -0.292

Sequence: RRIRDRPPRLPRPRPRPVSMPRP
- shrunken log2 fold change: -0.0171

Sequence: RRIRVRPPRLPRPRPRPGDQPRP
- shrunken log2 fold change: 0.0324

Sequence: RRIRNRPPRLPRPRPRPRMFPRP
- shrunken log2 fold change: -0.362

Sequence: RRIRHRPPRLPRPRPRPWFYPRP
- shrunken log2 fold change: -0.244

Sequence: RRIRNRPPRLPRPRPRPHALPRP
- shrunken log2 fold change: 0.0517

Sequence: RRIRGRPPRLPRPRPRPKKDPRP
- shrunken log2 fold change: 0.708

Sequence: RRIRQRPPRLPRPRPRPCYRPRP
- shrunken log2 fold change: -0.00251

Sequence: RRIRNRPPRLPRPRPRPLYYPRP
- shrunken log2 fold change: -0.0384

Sequence: RRIRKRPPRLPRPRPRPDSSPRP
- shrunken log2 fold change: 0.0149

Sequence: RRIRWRPPRLPRPRPRPEDGPRP
- shrunken log2 fold change: 0.173

Sequence: RRIRYRPPRLPRPRPRPWLKPRP
- shrunken log2 fold change: -0.0198

Sequence: RRIRCRPPRLPRPRPRPMFIPRP
- shrunken log2 fold change: -1.16

Sequence: RRIRWRPPRLPRPRPRPNHPPRP
- shrunken log2 fold change: -0.0659

Sequence: RRIRNRPPRLPRPRPRPLQKPRP
- shrunken log2 fold change: -0.0108

Sequence: RRIRSRPPRLPRPRPRPATPPRP
- shrunken log2 fold change: 0.373

Sequence: RRIRIRPPRLPRPRPRPFIRPRP
- shrunken log2 fold change: -0.358

Sequence: RRIRVRPPRLPRPRPRPREKPRP
- shrunken log2 fold change: 0.179

Sequence: RRIRNRPPRLPRPRPRPWVRPRP
- shrunken log2 fold change: -0.0742

Sequence: RRIRKRPPRLPRPRPRPFMVPRP
- shrunken log2 fold change: -0.145

Sequence: RRIRRRPPRLPRPRPRPETNPRP
- shrunken log2 fold change: 0.596

Sequence: RRIRQRPPRLPRPRPRPIKAPRP
- shrunken log2 fold change: 0.00249

Sequence: RRIRTRPPRLPRPRPRPSWSPRP
- shrunken log2 fold change: -0.196

Sequence: RRIRIRPPRLPRPRPRPTKWPRP
- shrunken log2 fold change: -0.15

Sequence: RRIRKRPPRLPRPRPRPLIFPRP
- shrunken log2 fold change: -0.0683

Sequence: RRIRSRPPRLPRPRPRPVESPRP
- shrunken log2 fold change: -0.0897

Sequence: RRIRERPPRLPRPRPRPALGPRP
- shrunken log2 fold change: 0.37

Sequence: RRIRQRPPRLPRPRPRPRATPRP
- shrunken log2 fold change: 0.138

Sequence: RRIRWRPPRLPRPRPRPCMQPRP
- shrunken log2 fold change: 0.0574

Sequence: RRIRCRPPRLPRPRPRPETWPRP
- shrunken log2 fold change: 0.203
